Experimental data as given in paper doi:10.1101/2022.05.12.491222.

Key:
LARGE1ΔTM [1] = target: LARGE1ΔTM (UniProt O95461); assay: SAXS
LARGE1ΔTM [2] = target: LARGE1ΔTM (UniProt O95461); assay: SEC-MALS
[3] = target: LARGE1ΔTM treated with PNGase F (UniProt O95461); assay: SEC-MALS
LARGE2ΔTM [4] = target: LARGE2ΔTM (UniProt Q8N3Y3); assay: SAXS
LARGE2ΔTM [5] = target: LARGE2ΔTM (UniProt Q8N3Y3); assay: SEC-MALS
[6] = target: LARGE2ΔTM treated with PNGase F (UniProt Q8N3Y3); assay: SEC-MALS

Chain of LARGE2ΔTM (Q8N3Y3 whole entry, stated change not applied): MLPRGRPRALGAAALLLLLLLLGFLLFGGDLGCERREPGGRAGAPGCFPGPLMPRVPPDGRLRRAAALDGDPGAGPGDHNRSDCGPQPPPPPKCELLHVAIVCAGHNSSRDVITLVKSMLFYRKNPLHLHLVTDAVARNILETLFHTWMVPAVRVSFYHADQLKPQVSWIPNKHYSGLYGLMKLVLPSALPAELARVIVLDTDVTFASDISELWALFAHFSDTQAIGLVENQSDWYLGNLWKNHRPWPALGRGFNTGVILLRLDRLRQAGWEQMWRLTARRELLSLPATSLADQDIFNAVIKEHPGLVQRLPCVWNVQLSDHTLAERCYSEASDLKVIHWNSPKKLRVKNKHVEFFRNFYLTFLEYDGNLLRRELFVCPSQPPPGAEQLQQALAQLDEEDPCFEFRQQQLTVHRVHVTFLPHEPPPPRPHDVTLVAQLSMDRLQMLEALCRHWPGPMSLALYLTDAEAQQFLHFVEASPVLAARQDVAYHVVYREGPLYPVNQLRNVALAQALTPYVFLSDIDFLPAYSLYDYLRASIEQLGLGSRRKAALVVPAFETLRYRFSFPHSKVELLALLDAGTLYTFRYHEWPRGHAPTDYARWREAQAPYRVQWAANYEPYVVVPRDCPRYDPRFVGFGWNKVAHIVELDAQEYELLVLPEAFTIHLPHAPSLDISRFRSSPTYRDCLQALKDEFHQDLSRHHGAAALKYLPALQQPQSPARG
Chain of LARGE1ΔTM (O95461 34-756, stated change not applied): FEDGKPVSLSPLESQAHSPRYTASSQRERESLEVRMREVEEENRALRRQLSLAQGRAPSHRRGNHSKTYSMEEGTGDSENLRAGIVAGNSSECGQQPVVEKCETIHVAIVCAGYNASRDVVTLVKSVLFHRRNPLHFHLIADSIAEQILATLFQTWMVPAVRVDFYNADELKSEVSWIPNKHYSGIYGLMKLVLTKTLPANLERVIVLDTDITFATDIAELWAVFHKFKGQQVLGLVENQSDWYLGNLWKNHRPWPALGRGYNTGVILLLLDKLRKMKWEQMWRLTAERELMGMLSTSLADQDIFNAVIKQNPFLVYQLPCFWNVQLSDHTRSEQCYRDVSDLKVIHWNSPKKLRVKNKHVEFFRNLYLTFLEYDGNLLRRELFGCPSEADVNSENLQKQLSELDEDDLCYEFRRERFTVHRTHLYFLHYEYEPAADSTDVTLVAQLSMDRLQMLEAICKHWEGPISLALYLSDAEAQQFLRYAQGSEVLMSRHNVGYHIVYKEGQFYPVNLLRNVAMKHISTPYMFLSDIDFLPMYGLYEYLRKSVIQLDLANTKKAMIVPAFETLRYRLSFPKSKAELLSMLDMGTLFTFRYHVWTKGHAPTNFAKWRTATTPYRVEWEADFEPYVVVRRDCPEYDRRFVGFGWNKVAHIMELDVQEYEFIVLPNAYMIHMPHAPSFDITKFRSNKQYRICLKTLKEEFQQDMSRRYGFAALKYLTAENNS

LARGE1ΔTM (from UniProt O95461 34-756) (enzyme)
stoichiometry N (LARGE1ΔTM [1]): 2 | stoichiometry N (LARGE1ΔTM [2]): 2

LARGE1ΔTM treated with PNGase F (from UniProt O95461 34-756) (enzyme)
stoichiometry N [3]: 2

LARGE2ΔTM (from UniProt Q8N3Y3 1-721) (enzyme)
stoichiometry N (LARGE2ΔTM [4]): 2 | stoichiometry N (LARGE2ΔTM [5]): 2

LARGE2ΔTM treated with PNGase F (from UniProt Q8N3Y3 1-721) (enzyme)
stoichiometry N [6]: 2
